Experimental findings from patent US20260242449A1 (INTERNATIONAL AIDS VACCINE INITIATIVE, published 2026) are described below.

What all share (test): cell-based or functional assay
For assay [1], the target named is HIV-1 Env of pseudovirus 6545.V4.C1 (clade AC) (HIV-1).
Assay [2] has as its target HIV-1 Env of pseudovirus BJOX009000.02.4 (clade AE) (HIV-1).
Assay [3] addresses HIV-1 Env of pseudovirus CNE8 (clade AE) (HIV-1).
Assay [4] concerns the target HIV-1 Env of pseudovirus BJOX010000.06.2 (clade AE (T/F)) (HIV-1).
Assay [5] has as its target HIV-1 Env of pseudovirus QH0692.42-N332A (clade B) (HIV-1).
Assay [6] addresses HIV-1 Env of pseudovirus TRO.11-N332A (clade B) (HIV-1).
For assay [7], the target named is HIV-1 Env of pseudovirus CAP45.G3 (clade C) (HIV-1).
The target in assay [8] is HIV-1 Env of pseudovirus 3016.v5.c45 (clade D) (HIV-1).
Assay [9] has as its target HIV-1 Env of pseudovirus 231965.c01 (clade D) (HIV-1).
Assay [10] concerns the target HIV-1 Env of pseudovirus X1632.S2.B10 (clade G) (HIV-1).
Assay [11] addresses HIV-1 Env of pseudovirus Q259.17 (clade A) (HIV-1).
Assay [12] concerns the target HIV-1 Env of pseudovirus MS208.A1 (clade A) (HIV-1).
Assay [13] addresses HIV-1 Env of pseudovirus T257-31 (clade AG) (HIV-1).

B1: BiS13 (bispecific antibody)
heavy: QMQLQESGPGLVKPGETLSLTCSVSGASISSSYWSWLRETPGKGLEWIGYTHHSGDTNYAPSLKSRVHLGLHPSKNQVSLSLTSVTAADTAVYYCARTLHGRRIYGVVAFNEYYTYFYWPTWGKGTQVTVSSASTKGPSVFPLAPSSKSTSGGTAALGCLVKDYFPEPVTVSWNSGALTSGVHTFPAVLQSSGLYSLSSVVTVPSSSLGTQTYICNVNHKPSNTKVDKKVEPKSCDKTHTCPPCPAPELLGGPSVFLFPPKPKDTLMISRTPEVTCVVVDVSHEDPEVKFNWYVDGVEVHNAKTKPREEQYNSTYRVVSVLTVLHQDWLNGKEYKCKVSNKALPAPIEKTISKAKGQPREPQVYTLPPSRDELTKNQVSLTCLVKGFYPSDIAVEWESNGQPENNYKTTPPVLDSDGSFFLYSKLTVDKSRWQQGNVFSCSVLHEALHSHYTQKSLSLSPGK
light: ALTQPRSVSASPGQSVTISCTGTHNLVSWCQHQPGRAPKLLIYDFNKRPSGVPDRFSGSGSGGTASLTITGLQDDDDAEYFCWAYEAFGGGTKLTVLGQGGGGSGGGGSGGGGSADLVQSGAVVKKPGDSVRISCEAQGYRFPDYIIHWIRRAPGQGPEWMGWMNPMGGQVNIPWKFQGRVSMTRDTSIETAFLDLRGLKSDDTAVYYCVRDRSNGSGKRFESSNWFLDLWGRGTAVTIQSGGGGSGGGGSGGGGSGGGGSGGGGSDISVAPGETVRITCGGESIGSRAVQWYQHRPGQAPRLIIYNNQDRPPGIPERFSGSPDIDFGTTATLTISNVEAGDEATYYCHIWDSRRPTNWELGPGTTLTVLGQPKAAPSVTLFPPSSEELQANKATLVCLISDFYPGAVTVAWKADSSPVKAGVETTTPSKQSNNKYAASSYLSLTPEQWKSHKSYSCQVTHEGSTVEKTVAPTECS
As for B1, the “Pseudovirus neutralization IC80 (TZM-bl luciferase)” value (shortened to “Pseudovirus neutralization IC80”) in assay [1] is less than 0.0001 µg/mL; in assay [2], 0.0096 µg/mL; in [3] it was 0.137 µg/mL; in assay [4] it was 0.172 µg/mL; in assay [5] it was 0.0311 µg/mL; in assay [6] it was 0.0054 µg/mL. Moreover, the “Pseudovirus neutralization IC80” value in assay [7] is 0.0021 µg/mL; in assay [8] it was 0.0156 µg/mL; in [9] it was 0.0157 µg/mL; in [10], 0.06 µg/mL; in assay [11] it was 0.0114 µg/mL; in assay [12], 0.0998 µg/mL.

B2: ePGT121 (antibody, V domains shown)
VH: QMQLQESGPGLVKPGETLSLTCSVSGASISSSYWSWLRETPGKGLEWIGYTHHSGDTNYAPSLKSRVHLGLHPSKNQVSLSLTSVTAADTAVYYCARTLHGRRIYGVVAFNEYYTYFYWPTWGKGTQVTVSS
VL: SDISVAPGETVRITCGGESIGSRAVQWYQHRPGQAPRLIIYNNQDRPPGIPERFSGSPDIDFGTTATLTISNVEAGDEATYYCHIWDSRRPTNWELGPGTTLTVLG
B2: the “Pseudovirus neutralization IC80” value in [1] is more than 50 µg/mL; in assay [2] it was 0.0428 µg/mL; in [3], more than 50 µg/mL; in assay [4], more than 50 µg/mL; in assay [13], more than 50 µg/mL; in assay [5], more than 50 µg/mL. The “Pseudovirus neutralization IC80” value is 1.35 µg/mL in assay [6]; 5.78 µg/mL in [7]; more than 50 µg/mL in assay [8]; more than 50 µg/mL in [9]; more than 50 µg/mL in assay [10]; more than 50 µg/mL in assay [11]. Besides, in [12], the “Pseudovirus neutralization IC80” value was more than 50 µg/mL.

B3: N49P7 (antibody, V domains shown)
VH: ADLVQSGAVVKKPGDSVRISCEAQGYRFPDYIIHWIRRAPGQGPEWMGWMNPMGGQVNIPWKFQGRVSMTRDTSIETAFLDLRGLKSDDTAVYYCVRDRSNGSGKRFESSNWFLDLWGRGTAVTIQS
VL: ALTQPRSVSASPGQSVTISCTGTHNLVSWCQHQPGRAPKLLIYDFNKRPSGVPDRFSGSGSGGTASLTITGLQDDDDAEYFCWAYEAFGGGTKLTVL
Consider B3, for which the “Pseudovirus neutralization IC80” value came to 1.76 µg/mL in [1]; 0.0999 µg/mL in assay [2]; 0.175 µg/mL in assay [3]; 0.453 µg/mL in assay [4]; 0.577 µg/mL in assay [13]; 0.35 µg/mL in assay [5]. The “Pseudovirus neutralization IC80” value was determined as 0.0622 µg/mL in assay [6]; 0.112 µg/mL in assay [7]; 0.516 µg/mL in assay [8]; 0.196 µg/mL in [9]; 0.27 µg/mL in [10]; 0.163 µg/mL in [11]. In addition, the “Pseudovirus neutralization IC80” value in assay [12] is 0.194 µg/mL.
